PMC12201654, “Circovirus Rep evades immune restriction by disrupting cGAS oligomerization and phase separation” (PLOS Pathogens, 2025)

Experiments:
pcGAS full length = biological target: T1, pcGAS full length (pig (porcine), UniProt I3LM39 1-495); test: MST; Pull-down: IP lysis buffer 4 h at 4 C (lysates) or NP-40 buffer 6 h at 4 C (recombinant), biotin-HSV60 40 ug/mL; MST buffer not given; phase separation 50-300 mM NaCl; details: protein: recombinant; label: Cy5; blunt
T1 sequence: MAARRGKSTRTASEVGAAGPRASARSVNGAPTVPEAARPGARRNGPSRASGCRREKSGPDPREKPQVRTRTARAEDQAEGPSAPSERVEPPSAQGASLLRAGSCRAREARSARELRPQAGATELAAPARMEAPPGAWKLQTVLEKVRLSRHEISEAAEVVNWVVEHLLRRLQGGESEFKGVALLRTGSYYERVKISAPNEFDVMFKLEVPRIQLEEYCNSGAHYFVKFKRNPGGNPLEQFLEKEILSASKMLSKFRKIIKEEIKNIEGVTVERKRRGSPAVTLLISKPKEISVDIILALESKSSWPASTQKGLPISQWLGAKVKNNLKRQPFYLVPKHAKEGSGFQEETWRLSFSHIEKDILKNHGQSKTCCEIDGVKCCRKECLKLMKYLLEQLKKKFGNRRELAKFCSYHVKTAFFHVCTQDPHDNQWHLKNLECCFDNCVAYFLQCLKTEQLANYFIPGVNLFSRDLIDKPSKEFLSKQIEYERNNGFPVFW

PCV2a Rep = biological target: T2, PCV2a Rep (Porcine circovirus 2a, UniProt Q77Q74 1-314); test: as above; details: protein: recombinant; tags: C-terminal Myc; His6-SUMO removed per Methods; label: Cy5; blunt
T2 sequence: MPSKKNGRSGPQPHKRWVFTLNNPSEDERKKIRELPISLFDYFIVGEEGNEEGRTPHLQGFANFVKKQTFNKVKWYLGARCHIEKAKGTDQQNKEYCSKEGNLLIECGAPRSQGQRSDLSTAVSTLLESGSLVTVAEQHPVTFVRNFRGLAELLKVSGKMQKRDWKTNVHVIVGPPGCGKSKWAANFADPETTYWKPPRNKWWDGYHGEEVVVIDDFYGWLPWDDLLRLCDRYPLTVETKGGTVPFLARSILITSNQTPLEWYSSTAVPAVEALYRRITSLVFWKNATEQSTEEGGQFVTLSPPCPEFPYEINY

SUMO-PCV3 Rep-Myc = SUMO-PCV3 Rep-Myc (Porcine circovirus 3, UniProt A0ACM8RHE8 1-296); test: pull-down; Pull-down: IP lysis buffer 4 h at 4 C (lysates) or NP-40 buffer 6 h at 4 C (recombinant), biotin-HSV60 40 ug/mL; MST buffer not given; phase separation 50-300 mM NaCl; details: protein: recombinant; tags: His6-SUMO, C-terminal Myc; label: 5'-biotin; blunt
SUMO-PCV4 Rep-Myc = biological target: T3, SUMO-PCV4 Rep-Myc (Porcine circovirus 4, UniProt A0A7M4CFI7 1-296); test: as above; details: protein: recombinant; tags: His6-SUMO, C-terminal Myc; label: 5'-biotin; blunt
T3 sequence: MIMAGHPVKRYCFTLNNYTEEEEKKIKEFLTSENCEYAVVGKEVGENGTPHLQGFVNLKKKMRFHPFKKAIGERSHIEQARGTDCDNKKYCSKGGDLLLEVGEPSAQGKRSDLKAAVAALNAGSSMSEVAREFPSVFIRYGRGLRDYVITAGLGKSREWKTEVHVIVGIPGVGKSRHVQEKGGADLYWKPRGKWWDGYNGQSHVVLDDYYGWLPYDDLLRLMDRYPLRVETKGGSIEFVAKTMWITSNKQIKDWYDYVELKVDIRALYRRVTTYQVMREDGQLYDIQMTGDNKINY

[1] = biological target: the molecule itself; test: cross-linking; recombinant pcGAS (5 ug), bound to ISD45 dsDNA, alone or with recombinant Rep proteins (5, 10, 15 ug) in cGAMP synthesis buffer (20 mM HEPES pH 7.5, 5 mM MgCl2, 2 mM ATP, 2 mM GTP), 25°C 15 min, then DSS 0.5 mM for 10 min; non-reducing loading buffer, immunoblot

B1: Cy5-HSV60 (dsDNA)
DNA 1: TAAGACACGATGCGATAAAATCTGTTTGTAAAATTTATTAAGGGTACAAATTGCCCTAGC
DNA 2: GCTAGGGCAATTTGTACCCTTAATAAATTTTACAAACAGATTTTATCGCATCGTGTCTTA
- Kd (pcGAS full length): 680 nM
- Kd (PCV2a Rep): 11.1 µM

B2: biotin-HSV60 (dsDNA)
DNA 1: TAAGACACGATGCGATAAAATCTGTTTGTAAAATTTATTAAGGGTACAAATTGCCCTAGC
DNA 2: GCTAGGGCAATTTGTACCCTTAATAAATTTTACAAACAGATTTTATCGCATCGTGTCTTA
- binding result (SUMO-PCV3 Rep-Myc): binds
- binding result (SUMO-PCV4 Rep-Myc): binds

B3: porcine cGAS (pcGAS), recombinant full-length protein (natural protein)
chain: MAARRGKSTRTASEVGAAGPRASARSVNGAPTVPEAARPGARRNGPSRASGCRREKSGPDPREKPQVRTRTARAEDQAEGPSAPSERVEPPSAQGASLLRAGSCRAREARSARELRPQAGATELAAPARMEAPPGAWKLQTVLEKVRLSRHEISEAAEVVNWVVEHLLRRLQGGESEFKGVALLRTGSYYERVKISAPNEFDVMFKLEVPRIQLEEYCNSGAHYFVKFKRNPGGNPLEQFLEKEILSASKMLSKFRKIIKEEIKNIEGVTVERKRRGSPAVTLLISKPKEISVDIILALESKSSWPASTQKGLPISQWLGAKVKNNLKRQPFYLVPKHAKEGSGFQEETWRLSFSHIEKDILKNHGQSKTCCEIDGVKCCRKECLKLMKYLLEQLKKKFGNRRELAKFCSYHVKTAFFHVCTQDPHDNQWHLKNLECCFDNCVAYFLQCLKTEQLANYFIPGVNLFSRDLIDKPSKEFLSKQIEYERNNGFPVFW
notes: cyclic GMP-AMP synthase (cGAS), porcine, full length; identifier not given; also called porcine cyclic GMP-AMP synthase; pcGAS full length; source: recombinant protein, stored in our laboratory
- binding result [1]: binds
